Results reported in patent US7229806B2, “Microbial conversion of glucose to para-hydroxystyrene” (E. I. du Pont de Nemours and Company, priority 2002, dated 2007).
Positions count from the first letter of the chain named. One block for each molecule: values may come before it.

Legend:
E. coli NST74 = test: Toxicity of pHCA and pHS to the cells; type: cell-based; conditions: previous studies
[1] = target: TAL activity of the PAL/TAL enzyme (Rhodotorula toruloides, UniProt P11544); test: Inhibition of TAL activity by pHCA; type: biochemical, R. glutinis
From the text: (§1) An E. coli strain containing the wild type pal/tal gene (PAL/TAL ratio of 2.0) uses both PAL and TAL routes to convert glucose to both CA and pHCA. […] Based on the kinetic information it is expected that the presence of phenylalanine would interfere with the TAL activity of the enzyme.

[2] = TAL/PAL activity ratio of wild type and mutant PAL/TAL enzymes, separate TAL and PAL measurements in whole cells; type: biochemical; conditions: ratio of TAL catalytic activity to PAL catalytic activity
Description: In order to select for those mutants having genes encoding proteins with enhanced TAL activity, a selection system based on the reversibility of the tyrosine to PHCA reaction was developed. It will be appreciated that the TAL activity responsible for the conversion of tyrosine to pHCA is in a state of equilibrium with the opposite reaction. Mutant genes were cloned by standard methods into E. coli tyrosine auxotrophs, unable to grow in the absence of tyrosine. Transformants were plated on tyrosine minus medium in the presence of suitable concentrations of pHCA. Those colonies which grew under these conditions were picked and analyzed for the presence of the mutant gene. In this fashion, a gene was isolated that expressed an enzyme having a catalytic efficiency of about 12.6×10^3 M^−1sec^−1 and a ratio of TAL catalytic activity to PAL catalytic activity of 1.7 compared to 0.5 for the wild type.
A simple method is disclosed that relies on separate measurements of the TAL and PAL activities in whole cells. The ratio of TAL to PAL activity then may be calculated and quickly compared to wild type activity, to monitor changes in the bio-catalyst activity.
Using the above approach Applicants have identified a variety of mutant PAL enzymes that have increased TAL activity, compared to the wild type gene. These mutants were identified using the methods of mutagenesis and screening described above. The mutants, the altered amino acid residues, and the TAL/PAL activity are summarized below.

[3] = Kinetic studies with the PAL/TAL enzyme (Vmax, PAL/TAL ratio); type: biochemical
From the text: as §1

[4] = Characterization of purified PDC enzymes (pHCA as substrate); type: biochemical; conditions: PDC enzyme
Description: The reaction was initiated by the addition of 1.0 μL of enzyme to a 1.0 mL solution containing 25 mM phosphate buffer, pH 6.0, and 0.2 mM pHCA in a plastic, UV transparent cuvette. The reaction was then followed for 5 minutes spectrophotometrically at 315 nm at room temperature, using a molar extinction coefficient of […] for pHCA disappearance. The specific activity was expressed as micromoles of pHCA degraded per minute per milligram of protein.
The characteristics of the PDC enzymes isolated from L. plantarum and B. subtilis were obtained using standard spectrometric and electrophoretic techniques and are listed in Table 5.

Molecule: C=Cc1ccc(O)cc1 [pHS, para-Hydroxystyrene]
toxic to the cells (E. coli NST74): toxic | concentration showing toxicity to the cells (E. coli NST74; as low as): ≥ 500 µg/mL

Molecule: O=C(O)C=Cc1ccc(O)cc1 [pHCA, para-Hydroxycinnamic acid]
Ki [1]: 16 µM | toxic to the cells (E. coli NST74): toxic

PAL/TAL ratio ([3]; wild type pal/tal gene in E. coli): 2.0
B1: Wild Type PAL: wild type phenylalanine-tyrosine ammonia lyase (pal/tal) enzyme from R. glutinis, SEQ ID NO:2 (protein, listed as Rhodotorula glutinis)
chain: MAPSLDSISHSFANGVASAKQAVNGASTNLAVAGSHLPTTQVTQVDIVEKMLAAPTDSTLELDGYSLNLGDVVSAARKGRPVRVKDSDEIRSKIDKSVEFLRSQLSMSVYGVTTGFGGSADTRTEDAISLQKALLEHQLCGVLPSSFDSFRLGRGLENSLPLEVVRGAMTIRVNSLTRGHSAVRLVVLEALTNFLNHGITPIVPLRGTISASGDLSPLSYIAAAISGHPDSKVHVVHEGKEKILYAREAMALFNLEPVVLGPKEGLGLVNGTAVSASMATLALHDAHMLSLLSQSLTAMTVEAMVGHAGSFHPFLHDVTRPHPTQIEVAGNIRKLLEGSRFAVHHEEEVKVKDDEGILRQDRYPLRTSPQWLGPLVSDLIHAHAVLTIEAGQSTTDNPLIDVENKTSHHGGNFQAAAVANTMEKTRLGLAQIGKLNFTQLTEMLNAGMNRGLPSCLAAEDPSLSYHCKGLDIAAAAYTSELGHLANPVTTHVQPAEMANQAVNSLALISARRTTESNDVLSLLLATHLYCVLQAIDLRAIEFEFKKQFGPAIVSLIDQHFGSAMTGSNLRDELVEKVNKTLAKRLEQTNSYDLVPRWHDAFSFAAGTVVEVLSSTSLSLAAVNAWKVAAAESAISLTRQVRETFWSAASTSSPALSYLSPRTQILYAFVREELGVKARRGDVFLGKQEVTIGSNVSKIYEAIKSGRINNVLLKMLA
TAL/PAL ratio [2]: 0.5 | Vmax for PAL ([3]; previous kinetic studies): 5.5 | Vmax for TAL ([3]; previous kinetic studies): 0.76

B2: RM120-1: mutant TAL enzyme, SEQ ID NO:14 (protein)
chain: B1 chain with D126X, Q138X, I540X
modifications: Mutant from Rhodotorula glutinis
TAL/PAL ratio [2]: 7.2

B3: RM120-7: mutant TAL enzyme, SEQ ID NO:17 (protein)
chain: B1 chain with S149X, I202X, I540X
modifications: Mutant from Rhodotorula glutinis
TAL/PAL ratio [2]: 0.8

B4: RM120-4: mutant TAL enzyme, SEQ ID NO:16 (protein)
chain: B1 chain with S181X, V235X, I540X
modifications: Mutant from Rhodotorula glutinis
TAL/PAL ratio [2]: 2.0

B5: RM492-1: mutant TAL enzyme, SEQ ID NO:18 (protein)
chain: MAPSLDSISHSFANGVASAKQAVNGASTNLAVAGSHLPTTQVTQVDIVEKMLAAPTDSTLELDGYSLNLGDVVSAARKGRPVRVKDSDEIRSKIDKSVEFLRSQLSMSVYGVTTGFGGSADTRTEDAISLQKALLEHQLCGVLPSSFDSFRLGRGLENSLPLEVVRGAMTIRVNSLTRGHSAVRLVVLEALTNFLNHGITPIVPLRGTISASGDLSPLSYIAAAISGHPDSKVHVVHEGKEKILYAREAMALFNLEPVVLGPKEGLGLVNGTAVSASMATLALHDAHMLSLLSQSLTAMTVEAMVGHAGSFHPFLHDVTRPHPTQIEVAGNIRKLLEGSRFAVHHEEEVKVKDDEGILRQDRYPLRTSPQWLGPLVSDLIHAHAVLTIEAGQSTTDNPLIDVENKTSHHGGNFQAAAVANTMEKTRLGLAQIGKLNFTQLTEMLNAGMNRGLPSCLAAEDPSLSYHCKGLDIAAAAYTSELGHLANPVTTHVQPAEMANQAGNSLALISARRTTESNDVLSLLLATHLYCVLQAIDLRATEFEFKKQFGPAIVSLIDQHFGSAMTGSNLRDELVEKVNKTLAKRLEQTNSYDLVPRWHDAFSFAAGTVVEVLSSTSLSLAAVNAWKVAAAESAISLTRQVRETFWSAASTSSPALSYLSPRTQILYAFVREELGVKARRGDVFLGKQEVTIGSNVSKIYEAIKSGRINNVLLKMLA
modifications: not fully specified
TAL/PAL ratio [2]: 2.0

B6: L. plantarum: para-hydroxycinnamic acid decarboxylase (pdc1) from L. plantarum, SEQ ID NO:4, expressed in E. coli and purified (protein, listed as Lactobacillus plantarum)
chain: MTKTFKTLDDFLGTHFIYTYDNGWEYEWYAKNDHTVDYRIHGGMVAGRWVTDQKADIVMLTEGIYKISWTEPTGTDVALDFMPNEKKLHGTIFFPKWVEEHPEITVTYQNEHIDLMEQSREKYATYPKLVVPEFANITYMGEGQNNEDVISEAPYKEMPNDIRNGKYLIKTTIV
Km [4]: 1400 µM

B7: B. subtilis: para-hydroxycinnamic acid decarboxylase (pdc2) from B. subtilis, SEQ ID NO:6, expressed in E. coli and purified (protein, listed as Bacillus subtilis)
chain: MENFIGSHMIYTYENGWEYEIYIKNDHTIDYRIHSGMVAGRWVRDQEVNIVKLTEGVYKVSWTEPTGTDVSLNFMPNEKRMHGIIFFPKWVHEHPEITVCYQNDHIDLMKESREKYETYPKYVVPEFAEITFLKNEGVDNEEVISKAPYEGMTDDIRAGRL
Km [4]: 1300 µM
